In paper PMC8744954:

What was measured:
Jun (Homo sapiens) = Jun (Homo sapiens) (UniProt P05412); conditions: cited from earlier work
[1] = biological target: p53 proteins tested (wild type p53 and 46 common clinical mutants); experiment: SPR; NAPPA-SPRi: p53 proteins with GST-E-coil translated in situ and captured by K-coil peptide on a gold slide; purified full-length MDM2 20 μg/mL injected at 3 μL/s; running buffer 1x PBS, 1% Tween 20; 1:1 fit with Scrubber 2.0; apparent constants

Sequence of UniProt P05412 (P05412 whole entry): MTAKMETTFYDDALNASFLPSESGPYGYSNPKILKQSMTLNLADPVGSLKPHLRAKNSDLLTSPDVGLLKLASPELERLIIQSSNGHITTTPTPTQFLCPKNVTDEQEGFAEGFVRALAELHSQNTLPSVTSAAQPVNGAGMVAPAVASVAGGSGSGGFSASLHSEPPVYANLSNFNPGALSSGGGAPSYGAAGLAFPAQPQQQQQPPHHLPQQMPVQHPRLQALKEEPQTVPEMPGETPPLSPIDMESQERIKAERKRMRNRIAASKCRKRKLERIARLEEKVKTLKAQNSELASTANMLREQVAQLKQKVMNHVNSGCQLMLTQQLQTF

| Kd [1] | median KD [1] | Substance | Kd (Jun (Homo sapiens)) |
| --- | --- | --- | --- |
| – | – | Fos (from UniProt P01100) | 1 nM |
| 2.85 to 1350 nM | 105 nM | MDM2, full-length purified recombinant (from UniProt Q00987 1-491) (natural protein) | – |
